Assay results: patent publication US20230416394A1 (ELPISCIENCE SUZHOU BIOPHARMA, published 2023)
Where a chain is given by its changes, count along the chain named. “And” between values parts separate entries of the source, which are not always exact repeats. Identical values can stand only once. Each block holds one binder with its values, some of them ahead of it.

Experiments:
[1] = molecular target: T1, mouse CD39 (mouse, UniProt P55772 1-510); assay: FACS, CHOK1-mCD39 cells
T1 construct: whole, on cells; also called mCD39; CHOK1-mCD39
T1 sequence (looked up): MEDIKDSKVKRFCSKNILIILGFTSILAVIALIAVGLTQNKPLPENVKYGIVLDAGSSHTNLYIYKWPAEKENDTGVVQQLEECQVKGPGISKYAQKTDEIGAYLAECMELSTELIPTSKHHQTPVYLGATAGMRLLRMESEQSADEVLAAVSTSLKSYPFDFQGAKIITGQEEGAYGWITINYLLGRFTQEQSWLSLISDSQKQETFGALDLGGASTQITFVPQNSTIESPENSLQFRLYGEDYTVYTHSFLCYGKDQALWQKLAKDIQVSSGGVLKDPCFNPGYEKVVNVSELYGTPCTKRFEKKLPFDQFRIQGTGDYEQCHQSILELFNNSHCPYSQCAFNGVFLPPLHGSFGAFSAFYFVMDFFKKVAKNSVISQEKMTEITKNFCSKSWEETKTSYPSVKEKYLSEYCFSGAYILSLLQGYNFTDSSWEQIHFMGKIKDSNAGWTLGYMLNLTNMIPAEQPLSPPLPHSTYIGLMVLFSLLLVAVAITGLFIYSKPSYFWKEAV
Source text: FACS were used to determine binding of the antibodies to cell lines expressing CD39 naturally (SK-MEL-28) or recombinantly (CHOK1-hCD39, CHOK1-cynoCD39, and CHOK1-mCD39), or with cells lacking CD39 expression (CHOK1-blank) as a negative control.
CHOK1-hCD39, CHOK1-cCD39, CHOK1-mCD39 and CHOK1-blank cells were maintained in culture medium according to ATCC procedure. Cells were collected and re-suspended in blocking buffer at a density of 3×10⁶ cells/ml. […] The plates were washed with FACS buffer, and cells were re-suspended in 100 μL/well of PBS. Cells were then analyzed with FACSVerse™ and mean fluorescence intensity were determined. Full binding curves were generated on the CD39 expressing cells by testing a range of antibody concentrations. Apparent affinity was determined for each antibody using Prism software.

[2] = molecular target: T2, human CD39 (human, UniProt P49961 1-510); assay: cell-based or functional assay
T2 sequence: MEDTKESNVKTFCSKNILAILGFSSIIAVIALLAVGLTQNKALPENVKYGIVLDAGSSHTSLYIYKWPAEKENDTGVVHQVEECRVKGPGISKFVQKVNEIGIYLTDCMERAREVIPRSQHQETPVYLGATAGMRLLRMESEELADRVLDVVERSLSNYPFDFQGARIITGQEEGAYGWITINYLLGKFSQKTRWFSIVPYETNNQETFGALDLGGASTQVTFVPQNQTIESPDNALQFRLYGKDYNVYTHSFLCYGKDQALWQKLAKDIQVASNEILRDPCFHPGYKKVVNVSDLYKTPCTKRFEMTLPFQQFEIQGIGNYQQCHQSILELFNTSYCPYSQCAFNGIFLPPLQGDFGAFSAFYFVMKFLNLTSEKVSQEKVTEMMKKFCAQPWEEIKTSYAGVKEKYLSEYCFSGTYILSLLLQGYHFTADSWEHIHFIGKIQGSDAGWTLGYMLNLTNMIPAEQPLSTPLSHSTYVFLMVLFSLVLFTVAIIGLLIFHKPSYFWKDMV

[3] = molecular target: T2, human CD39; assay: cell-based or functional assay; remark: listed apart in the source

binding result [1]: no binding (tested: 30 µg/ml)
B1: mAb35 (antibody, V domains shown)
VH: EVRLQQSGAELVKPGASVKLSCTASGFNIEDTYVHWMKQRPEQGLEWIGRIDPAIDNSKYDPKFQGKATITAVSSSNTAYLQLSSLTSEDTAVYYCALYDGYNVYAMDYWGQGTSVTVSS
VL: DIVMTQAAFSNPVTLGTSASISCRSSKNLLHSNGITYLYWYLQRPGQSPQLLIYRASTLASGVPNRFSGSESGTDFTLRISRVEAEDVGVYYCAQLLELPHTFGGGTKLEIK
notes: mouse hybridoma antibody

binding result [1]: no binding (tested: 30 µg/ml)
B7: mAb14 (antibody, V domains shown)
VH: EVKLEESGGGLVQPGGSMKLSCVASGFTFSKYWMNWVRQSPEKGLEWVAEIRLKSNKYGTHYAESVKGRFTISRDDSKNNVYLQMNNLRPEDTGIYYCTTQLDLYWFFDVWGAGTTVTVSS
VL: DIVMTQSPAILSVTPGDRVSLSCRASQSISDYLHWYQQKSHESPRLLIKYASQSISGIPSRFSGSGSGSNFTLSINSVEPEDVGVYFCQNGHSLPLTFGAGTKLELR
notes: mouse hybridoma antibody

binding result [1]: no binding (tested: 30 µg/ml)
B9: mAb13 (antibody, V domains shown)
VH: QIQLVQSGPELKKPGETVKISCKASGYTFTNYGMNWVKQAPGKGLRWMGLINTYTGEPTYADDFKDRFAFSLETSASTAFLQINNLKDEDMATYFCARKGIYYDYVWFFDVWGAGTTVTVSS
VL: DIQMTQSPSSLSTSLGGKVSITCKASQDINRYIAWYQHKPGKGPRLLIHYTSTLLPGIPSRFSGSGSGRDYSFSISNLEPEDIATYFCLQYSNLLTFGGGTKLEIK
notes: mouse hybridoma antibody

ATPase inhibition on SK-MEL-28 cells, IC50 [2]: 0.13 nM
B12: hu23.H5L6 (antibody, V domains shown)
VH: QVQLVQSGAEVKKPGASVKVSCKASGYNLKDTFLHWVRQAPGQGLEWMGRIDPANGNIKYDPKFQGRVTITADTSANTAYMELISLRSEDTAVYYCANSPYYYGSGYRIFDVWGQGTTVTVSS
VL: QIVLTQSPATLSASPGERATLSCSAFSSVNYMHWYQQKPGQAPKLLIYTTSNLASGVPTRFSGSGSGTSYTLTISSMEPEDFAVYYCQQRSTYPFTFGQGTKLEIK

ATPase inhibition on SK-MEL-28 cells, IC50 [2]: 0.964 nM
B13: hu23.H1L2 (antibody, V domains shown)
VH: B12 VH with G44R, A72R, N77S, I84S, N98R
VL: B12 VL with Q1E, A13L, K44R, V57I, T59A, S69D, M77L

ATPase inhibition on SK-MEL-28 cells, IC50 [2]: 0.767 nM
B14: hu23.H2L2 (antibody, V domains shown)
VH: B12 VH with N77S, I84S
VL: B12 VL with Q1E, A13L, K44R, V57I, T59A, S69D, M77L

ATPase inhibition on SK-MEL-28 cells, IC50 [2]: 0.121 nM
B15: hu23.H7L6 (antibody, V domains shown)
VH: B12 VH with Q1E, V20L, R38K, M48I, R67K, V68A, I70L, M81L
VL: B12 VL

ATPase activity inhibition (IC50), MOLP-8 cells [3]: 0.33 nM | ATPase activity inhibition (IC50), SK-MEL-5 cells [3]: 0.07 nM | ATPase inhibition on SK-MEL-28 cells, IC50 [2]: 0.122 nM
B16: hu23.H5L5 (antibody, V domains shown)
VH: B12 VH
VL: B12 VL with A13L, K44R, V57I, M77L

ATPase inhibition on SK-MEL-28 cells, IC50 [2]: 0.144 nM
B19: hu23.H7L5 (antibody, V domains shown)
VH: B12 VH with Q1E, V20L, R38K, M48I, R67K, V68A, I70L, M81L
VL: B12 VL with A13L, K44R, V57I, M77L

ATPase inhibition on SK-MEL-28 cells, IC50 [2]: 0.487 nM
B20: hu23.H4L4 (antibody, V domains shown)
VH: B12 VH with V20L, R38K, M48I, V68A, I70L, N77S, M81L, I84S
VL: B12 VL with Q1E, A19V, L21I, K44R, V57I, T59A, S69D

ATPase inhibition on SK-MEL-28 cells, IC50 [2]: 0.386 nM
B21: hu23.211 (antibody, V domains shown)
VH: B12 VH with Q1E, N28T, G44R, A76S, I84S, T118L
VL: B12 VL with Q1E, A13L, K44R, V57I, T59A, S69D, M77L

Further lines, the binder ahead of its results:

B2: mAb21 (antibody, V domains shown)
VH: EVKLEKSGGGLVQPGGSMKLSCVASGFTFSNYWMNWVRQSPEKGLEWVAQIRLNPDNYATHFAESVKGRFTISRDDSKNSVYLQMNSLRAEDTGIYYCTEHGTRGFAYWGQGTLVTVSE
VL: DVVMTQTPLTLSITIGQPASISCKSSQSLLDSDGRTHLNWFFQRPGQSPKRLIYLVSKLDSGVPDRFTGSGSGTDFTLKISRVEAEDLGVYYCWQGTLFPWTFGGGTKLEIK
notes: mouse hybridoma antibody
binding result [1]: no binding (tested: 30 µg/ml)

B3: c23 (antibody, V domains shown)
VH: EVQLQQSGAELLRPGASVKLSCTASGYNLKDTFLHWVKQRPEQGLEWIGRIDPANGNIKYDPKFQGKATLTADTSSNTAYLQLISLTSEDTAVYYCANSPYYYGSGYRIFDVWGAGTTVTVSS
VL: QIVLTQSPAIMSASPGEKVTITCSAFSSVNYMHWYQQKPGTSPKLLIYTTSNLASGVPTRFSGSGSGTSYSLTISRMEAEDAATYYCQQRSTYPFTFGSGTKLEIQ
ATPase inhibition on SK-MEL-28 cells, IC50 [2]: 0.158 nM and 0.209 nM

B4: mAb34 (antibody, V domains shown)
VH: EIQVQQSGPELVKPGASVKVSCKASGYSFTDYNMYWVKQSHGKSLEWIGFIDPYNGYTSYNQKFKGKATLTIDKSSSTAFMHLNSLTSEDSAVYYCAIYGYDDAYYFDYWGQGTTLTVSS
VL: B3 VL with F26T, N30S, Y35F, Q36R, L46W, T49S, T59A, E78A, S91I, Q106T
notes: mouse hybridoma antibody
binding result [1]: no binding (tested: 30 µg/ml)

B5: mAb23 (antibody, V domains shown)
VH: B3 VH
VL: B3 VL
notes: mouse hybridoma antibody
binding result [1]: no binding (tested: 30 µg/ml)

B6: T895 (antibody, V domains shown)
VH: EVQLQQSGPELVKPGASVKMSCKASGYTFTDYNMHWVKQSHGRTLEWIGYIVPLNGGSTFNQKFKGRATLTVNTSSRTAYMELRSLTSEDSAAYYCARGGTRFAYWGQGTLVTVSA
VL: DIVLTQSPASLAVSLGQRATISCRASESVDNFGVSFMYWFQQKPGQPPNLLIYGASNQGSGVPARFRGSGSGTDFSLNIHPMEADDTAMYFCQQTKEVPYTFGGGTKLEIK
ATPase activity inhibition (IC50), MOLP-8 cells [3]: 0.51 nM | ATPase activity inhibition (IC50), SK-MEL-5 cells [3]: 0.09 nM

B8: mAb19 (antibody, V domains shown)
VH: EVKLEKSGGGLVQPGGSMKLSCVASGFTFSNYWMNWVRQSPEKGLEWVAQIRLNPDNYATHYAESVKGRFTISRDDYKNSVYLQMSSLRAEDSGIYYCTQHGSRGFAYWGQGTLVTVS
VL: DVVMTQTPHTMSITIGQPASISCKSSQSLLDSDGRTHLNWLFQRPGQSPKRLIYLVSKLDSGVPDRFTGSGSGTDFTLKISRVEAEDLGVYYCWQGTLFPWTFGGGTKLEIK
notes: mouse hybridoma antibody
binding result [1]: no binding (tested: 30 µg/ml)

B10: hu23.201 (antibody, V domains shown)
VH: B12 VH with N28T, G44R, I70L, A76S, I84S, T118L
VL: B12 VL with Q1E, A13L, A42S, K44R, V57I, T59A, S69D, M77L
ATPase inhibition on SK-MEL-28 cells, IC50 [2]: 0.264 nM

B11: hu23.H1L4 (antibody, V domains shown)
VH: B12 VH with G44R, A72R, N77S, I84S, N98R
VL: B12 VL with Q1E, A19V, L21I, K44R, V57I, T59A, S69D
ATPase inhibition on SK-MEL-28 cells, IC50 [2]: 0.59 nM

B17: hu23.H7L1 (antibody, V domains shown)
VH: B12 VH with Q1E, V20L, R38K, M48I, R67K, V68A, I70L, M81L
VL: B12 VL with Q1E, A13L, K44R, V57I, T59A, S69D, Y70F, M77L
ATPase inhibition on SK-MEL-28 cells, IC50 [2]: 0.147 nM

B18: hu23.203 (antibody, V domains shown)
VH: B12 VH with N28T, G44R, I70L, A76S, I84S, T118L
VL: B12 VL with Q1E, S12T, A13L, K44R, V57I, T59A, S69D, M77L
ATPase inhibition on SK-MEL-28 cells, IC50 [2]: 0.32 nM
